Test [1] addresses human FcRn on HEK293 cells (human) (UniProt P55899). Kind of test: FACS on hFcRn-overexpressing HEK293 cells at pH 6.0, Alexa488 anti-human goat antibody; hIgG1 is the reference of the ratio.
The target is the same in test [2]. Kind of test: FACS on hFcRn-overexpressing HEK293 cells at pH 7.4, Alexa488 anti-human goat antibody; hIgG1 is the reference of the ratio.
For test [3] the target is unchanged. Briefly: FACS competition on hFcRn HEK293 cells at pH 6.0; remaining binding of 100 nM Alexa488-labeled hIgG1 (m14) with 250 nM unlabeled competitor, percent of the tube without competitor.
Test [4] has the same target. Kind of test: FACS competition on hFcRn HEK293 cells at pH 6.0; remaining binding of 100 nM Alexa488-labeled hIgG1 (m14) with 500 nM unlabeled competitor, percent of the tube without competitor.
Test [5] shares this target. Briefly: FACS competition on hFcRn HEK293 cells at pH 6.0; remaining binding of 100 nM Alexa488-labeled hIgG1 (m14) with 1000 nM unlabeled competitor, percent of the tube without competitor.

Chain of human FcRn on HEK293 cells (human) (P55899 24-365, chain 1 of 2): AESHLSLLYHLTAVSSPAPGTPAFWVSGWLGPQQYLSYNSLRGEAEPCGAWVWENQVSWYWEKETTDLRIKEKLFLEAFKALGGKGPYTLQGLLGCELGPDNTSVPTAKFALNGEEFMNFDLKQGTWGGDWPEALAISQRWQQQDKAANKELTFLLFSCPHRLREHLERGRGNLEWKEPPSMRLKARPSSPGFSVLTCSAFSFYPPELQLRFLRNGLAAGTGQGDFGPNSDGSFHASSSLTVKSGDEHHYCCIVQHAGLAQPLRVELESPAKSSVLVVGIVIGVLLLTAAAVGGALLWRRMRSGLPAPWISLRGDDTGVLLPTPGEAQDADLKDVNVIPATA
Chain of human FcRn on HEK293 cells (human) (P61769 21-119, chain 2 of 2, further chain): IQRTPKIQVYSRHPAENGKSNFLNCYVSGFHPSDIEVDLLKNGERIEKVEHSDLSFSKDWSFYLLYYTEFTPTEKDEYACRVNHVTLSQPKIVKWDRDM

For the substance human IgG1 (antibody), the Relative MFI (Fold) in test [1] and in test [2] was 1 fold in each case. The same substance returned a Relative MFI(%) at 250nM in test [3] of 87.4%. In test [4], this substance gave a Relative MFI(%) at 500nM of 69.9%. For the same substance, in test [5], the Relative MFI(%) at 1000nM is 69.1%.

(Values after US20160137713A1.)
